Reference: patent US20200199241A1 (Chugai, published 2020)
Changes are numbered by the printed parent chain. Numbers in names are those of the source.

T1: human FcγRIIb (human, UniProt P31994 43-217, limits assumed)
T1 construct: also called FcgRIIb; hFcgRIIb
T1 sequence: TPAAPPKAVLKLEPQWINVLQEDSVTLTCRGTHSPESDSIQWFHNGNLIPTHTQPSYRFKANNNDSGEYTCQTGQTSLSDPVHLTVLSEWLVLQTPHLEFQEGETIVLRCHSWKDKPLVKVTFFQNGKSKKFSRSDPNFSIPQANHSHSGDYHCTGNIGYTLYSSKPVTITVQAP

T2: human FcγRIIa(H) (human, UniProt P12318 36-217)
T2 construct: also called FcgRIIaH; hFcgRIIa(H)
T2 sequence: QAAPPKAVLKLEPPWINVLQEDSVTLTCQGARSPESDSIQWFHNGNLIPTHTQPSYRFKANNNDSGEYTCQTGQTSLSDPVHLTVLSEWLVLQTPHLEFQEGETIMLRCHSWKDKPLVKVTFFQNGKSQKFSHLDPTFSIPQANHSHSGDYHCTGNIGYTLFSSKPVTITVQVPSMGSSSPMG

T3: human FcγRIIa(R) (human, UniProt P12318 36-217)
T3 construct: also called FcgRIIaR; hFcgRIIa(R)
T3 chain: T2 sequence with H133R

B1: GpH7-B3 N325R/GpL16-k0 (antibody, human IgG1)
heavy: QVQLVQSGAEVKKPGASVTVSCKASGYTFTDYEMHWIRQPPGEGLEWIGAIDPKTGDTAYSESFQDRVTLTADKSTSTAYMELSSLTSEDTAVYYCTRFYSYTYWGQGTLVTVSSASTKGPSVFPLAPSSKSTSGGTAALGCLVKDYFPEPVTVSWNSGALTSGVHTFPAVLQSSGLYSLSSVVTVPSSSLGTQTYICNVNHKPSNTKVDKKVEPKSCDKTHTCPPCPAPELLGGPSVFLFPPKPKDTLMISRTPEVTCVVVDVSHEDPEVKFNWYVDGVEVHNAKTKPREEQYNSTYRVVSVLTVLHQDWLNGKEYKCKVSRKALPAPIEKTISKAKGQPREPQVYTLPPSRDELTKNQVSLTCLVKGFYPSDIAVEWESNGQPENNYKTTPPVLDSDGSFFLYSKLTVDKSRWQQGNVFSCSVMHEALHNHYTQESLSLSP
light: DIVMTQSPLSLPVTPGEPASISCQASESLVHSNRNTYLHWYLQKPGQSPQLLIYKVSNRFSGVPDRFSGSGSGTDFTLKISRVEAEDVGVYYCSQNTHVPPTFGQGTKVEIE
notes: B3 variant; copies: 2 + 2
B2: GpH7-B3 N325T/GpL16-k0 (antibody, human IgG1)
heavy: not shown
light: B1 light
notes: B3 variant; copies: 2 + 2
B3: GpH7-B3 N325V/GpL16-k0 (antibody, human IgG1)
heavy: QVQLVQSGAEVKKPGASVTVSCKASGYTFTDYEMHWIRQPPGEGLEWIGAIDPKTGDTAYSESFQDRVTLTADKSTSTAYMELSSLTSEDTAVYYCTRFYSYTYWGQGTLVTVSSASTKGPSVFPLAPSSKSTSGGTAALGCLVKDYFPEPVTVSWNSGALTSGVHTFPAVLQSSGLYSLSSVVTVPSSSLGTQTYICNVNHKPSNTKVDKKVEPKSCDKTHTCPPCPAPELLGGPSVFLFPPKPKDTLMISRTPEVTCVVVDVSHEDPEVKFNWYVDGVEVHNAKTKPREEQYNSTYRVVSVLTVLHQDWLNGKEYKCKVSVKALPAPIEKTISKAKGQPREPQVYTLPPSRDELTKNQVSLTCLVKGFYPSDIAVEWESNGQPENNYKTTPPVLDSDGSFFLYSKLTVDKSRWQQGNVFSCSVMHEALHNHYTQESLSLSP
light: B1 light
notes: B3 variant; copies: 2 + 2
B4: GpH7-B3 N325W/GpL16-k0 (antibody, human IgG1)
heavy: not shown
light: B1 light
notes: B3 variant; copies: 2 + 2
B5: GpH7-B3 N325Y/GpL16-k0 (antibody, human IgG1)
heavy: not shown
light: B1 light
notes: B3 variant; copies: 2 + 2
B6: GpH7-B3 P271F/GpL16-k0 (antibody, human IgG1)
heavy: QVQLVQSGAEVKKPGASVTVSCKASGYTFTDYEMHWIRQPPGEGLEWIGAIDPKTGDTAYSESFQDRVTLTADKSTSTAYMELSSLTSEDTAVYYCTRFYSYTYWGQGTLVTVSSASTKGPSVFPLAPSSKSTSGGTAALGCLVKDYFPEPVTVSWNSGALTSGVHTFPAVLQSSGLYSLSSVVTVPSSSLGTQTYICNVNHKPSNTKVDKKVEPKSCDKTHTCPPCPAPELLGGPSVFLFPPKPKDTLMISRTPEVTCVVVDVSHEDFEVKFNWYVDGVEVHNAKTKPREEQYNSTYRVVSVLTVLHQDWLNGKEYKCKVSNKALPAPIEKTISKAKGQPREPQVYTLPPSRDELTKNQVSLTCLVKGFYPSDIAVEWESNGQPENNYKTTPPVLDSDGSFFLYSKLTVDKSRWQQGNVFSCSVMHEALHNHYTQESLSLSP
light: B1 light
notes: B3 variant; copies: 2 + 2
B7: GpH7-B3 P271H/GpL16-k0 (antibody, human IgG1)
heavy: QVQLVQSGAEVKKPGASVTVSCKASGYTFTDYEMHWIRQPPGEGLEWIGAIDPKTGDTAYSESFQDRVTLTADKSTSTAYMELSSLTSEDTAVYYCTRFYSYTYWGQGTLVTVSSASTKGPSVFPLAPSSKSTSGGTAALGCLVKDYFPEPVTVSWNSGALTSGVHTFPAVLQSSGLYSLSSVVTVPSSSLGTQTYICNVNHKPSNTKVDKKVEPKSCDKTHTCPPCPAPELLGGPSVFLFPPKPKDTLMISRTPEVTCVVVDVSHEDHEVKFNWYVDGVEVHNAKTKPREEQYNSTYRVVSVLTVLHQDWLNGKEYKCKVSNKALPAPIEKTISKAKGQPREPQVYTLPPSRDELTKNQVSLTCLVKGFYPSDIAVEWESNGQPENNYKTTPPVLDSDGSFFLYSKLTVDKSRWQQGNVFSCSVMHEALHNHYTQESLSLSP
light: B1 light
notes: B3 variant; copies: 2 + 2
B8: GpH7-B3 P271R/GpL16-k0 (antibody, human IgG1)
heavy: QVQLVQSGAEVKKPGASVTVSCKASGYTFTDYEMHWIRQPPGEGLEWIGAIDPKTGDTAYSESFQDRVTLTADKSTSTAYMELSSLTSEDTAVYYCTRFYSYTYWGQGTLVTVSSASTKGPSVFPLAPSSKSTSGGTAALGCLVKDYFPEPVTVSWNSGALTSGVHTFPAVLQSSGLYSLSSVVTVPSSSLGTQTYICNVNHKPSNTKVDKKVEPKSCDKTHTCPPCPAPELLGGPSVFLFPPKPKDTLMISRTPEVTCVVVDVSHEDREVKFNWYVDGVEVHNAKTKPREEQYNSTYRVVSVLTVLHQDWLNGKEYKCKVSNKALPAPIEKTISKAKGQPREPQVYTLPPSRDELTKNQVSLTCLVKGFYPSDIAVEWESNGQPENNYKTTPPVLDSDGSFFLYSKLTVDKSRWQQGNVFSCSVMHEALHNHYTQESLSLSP
light: B1 light
notes: B3 variant; copies: 2 + 2
B9: GpH7-B3 P271S/GpL16-k0 (antibody, human IgG1)
heavy: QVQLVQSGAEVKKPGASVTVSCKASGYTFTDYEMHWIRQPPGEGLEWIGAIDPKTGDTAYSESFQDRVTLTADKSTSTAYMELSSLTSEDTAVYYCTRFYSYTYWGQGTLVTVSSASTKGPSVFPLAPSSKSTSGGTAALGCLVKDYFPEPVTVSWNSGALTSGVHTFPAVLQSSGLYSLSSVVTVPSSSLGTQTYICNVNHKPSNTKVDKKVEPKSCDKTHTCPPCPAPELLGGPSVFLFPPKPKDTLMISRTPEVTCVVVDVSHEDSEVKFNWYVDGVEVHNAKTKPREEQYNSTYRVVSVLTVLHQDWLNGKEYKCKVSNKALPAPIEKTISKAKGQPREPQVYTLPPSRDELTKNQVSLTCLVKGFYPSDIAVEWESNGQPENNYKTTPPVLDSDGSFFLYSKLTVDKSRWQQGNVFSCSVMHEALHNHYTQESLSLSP
light: B1 light
notes: B3 variant; copies: 2 + 2
B10: GpH7-B3 P271T/GpL16-k0 (antibody, human IgG1)
heavy: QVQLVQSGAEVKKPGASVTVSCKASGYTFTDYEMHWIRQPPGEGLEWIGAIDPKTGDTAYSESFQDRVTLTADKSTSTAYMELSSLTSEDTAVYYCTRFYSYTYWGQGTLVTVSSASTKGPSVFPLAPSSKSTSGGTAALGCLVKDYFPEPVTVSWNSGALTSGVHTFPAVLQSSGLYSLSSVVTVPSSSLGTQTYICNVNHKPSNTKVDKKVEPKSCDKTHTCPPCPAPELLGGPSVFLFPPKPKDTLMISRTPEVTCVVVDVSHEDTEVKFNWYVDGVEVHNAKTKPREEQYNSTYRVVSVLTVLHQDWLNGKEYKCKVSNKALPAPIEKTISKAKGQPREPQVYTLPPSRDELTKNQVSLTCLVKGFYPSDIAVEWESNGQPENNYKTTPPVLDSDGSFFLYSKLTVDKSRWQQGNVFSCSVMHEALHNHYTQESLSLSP
light: B1 light
notes: B3 variant; copies: 2 + 2
B11: GpH7-B3 P271W/GpL16-k0 (antibody, human IgG1)
heavy: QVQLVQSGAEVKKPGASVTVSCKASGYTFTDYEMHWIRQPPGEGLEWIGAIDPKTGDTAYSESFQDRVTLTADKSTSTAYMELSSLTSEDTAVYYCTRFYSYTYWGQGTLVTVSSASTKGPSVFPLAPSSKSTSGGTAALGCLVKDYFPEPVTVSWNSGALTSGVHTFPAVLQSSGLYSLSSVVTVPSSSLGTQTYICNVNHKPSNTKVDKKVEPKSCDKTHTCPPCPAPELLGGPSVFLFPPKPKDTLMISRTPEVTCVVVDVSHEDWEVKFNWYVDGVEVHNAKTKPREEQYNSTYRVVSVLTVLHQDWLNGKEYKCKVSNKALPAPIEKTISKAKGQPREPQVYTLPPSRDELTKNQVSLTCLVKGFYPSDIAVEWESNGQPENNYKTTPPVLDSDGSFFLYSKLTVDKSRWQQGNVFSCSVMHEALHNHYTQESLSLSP
light: B1 light
notes: B3 variant; copies: 2 + 2
B12: GpH7-B3 P271Y/GpL16-k0 (antibody, human IgG1)
heavy: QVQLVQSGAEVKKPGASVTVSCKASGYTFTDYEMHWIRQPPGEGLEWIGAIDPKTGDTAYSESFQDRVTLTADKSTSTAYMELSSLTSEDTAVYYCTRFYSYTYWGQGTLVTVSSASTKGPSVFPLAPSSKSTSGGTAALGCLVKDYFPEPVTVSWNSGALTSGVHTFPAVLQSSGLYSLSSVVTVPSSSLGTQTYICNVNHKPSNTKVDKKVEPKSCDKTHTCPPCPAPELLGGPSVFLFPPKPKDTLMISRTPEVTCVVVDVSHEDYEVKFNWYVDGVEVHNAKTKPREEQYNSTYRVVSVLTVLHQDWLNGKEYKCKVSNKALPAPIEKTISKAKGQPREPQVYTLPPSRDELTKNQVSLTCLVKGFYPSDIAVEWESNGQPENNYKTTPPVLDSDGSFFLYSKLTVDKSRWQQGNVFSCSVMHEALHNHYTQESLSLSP
light: B1 light
notes: B3 variant; copies: 2 + 2
B13: GpH7-B3 P329D/GpL16-k0 (antibody, human IgG1)
heavy: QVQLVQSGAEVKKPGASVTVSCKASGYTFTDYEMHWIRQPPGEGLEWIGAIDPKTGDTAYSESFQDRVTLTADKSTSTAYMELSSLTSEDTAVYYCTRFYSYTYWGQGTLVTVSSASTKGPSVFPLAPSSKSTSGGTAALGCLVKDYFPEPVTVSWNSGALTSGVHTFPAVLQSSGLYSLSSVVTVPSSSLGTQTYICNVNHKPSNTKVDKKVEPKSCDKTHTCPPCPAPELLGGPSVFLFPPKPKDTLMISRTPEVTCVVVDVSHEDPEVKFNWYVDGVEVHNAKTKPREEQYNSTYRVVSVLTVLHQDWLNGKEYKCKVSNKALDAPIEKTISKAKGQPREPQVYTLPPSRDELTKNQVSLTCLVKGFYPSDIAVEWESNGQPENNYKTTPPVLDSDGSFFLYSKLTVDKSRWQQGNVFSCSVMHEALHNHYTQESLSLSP
light: B1 light
notes: B3 variant; copies: 2 + 2
B14: GpH7-B3 P329E/GpL16-k0 (antibody, human IgG1)
heavy: not shown
light: B1 light
notes: B3 variant; copies: 2 + 2

target: T1, human FcγRIIb; test: SPR, captured antibody;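 note: antibody captured on a sensor chip, Fcγ receptor flowed over at 25 °C, receptor binding normalized to the captured antibody amount and expressed relative to the reference antibody ×100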
Procedure: (§1) Interaction between each modified antibody and Fcγ receptor prepared in the manner described above was analyzed using the BIACORE™ T100 surface plasmon resonance system (GE Healthcare), BIACORE™ T200 surface plasmon resonance system (GE Healthcare), BIACORE™ A100 surface plasmon resonance system or BIACORE™ 4000 surface plasmon resonance system. HBS-EP+ (GE Healthcare) was used for the running buffer, and measurements were carried out at 25° C. The chips used were chips in which antigen peptides, Protein A (Thermo Scientific), Protein A/G (Thermo Scientific) or Protein L (ACTIGEN® protein (Alltech or BioVision) were immobilized on the Series S Sensor Chip CMS (GE Healthcare) or Series S Sensor Chip CM4 (GE Healthcare) by amine coupling, or chips in which preliminarily biotinylated antigen peptides were allowed to interact and then immobilized on the Series S Sensor Chip SA (certified) (GE Healthcare). The target antibodies were captured on these sensor chips, Fcγ receptor diluted with the running buffer was allowed to interact, followed by measurement of the amount of bound antibody. The amounts bound were compared between antibodies. However, since the amount of Fcγ receptor bound depends on the amount of captured antibody, the values used for comparison were first corrected by dividing the amount of Fcγ receptor bound by the captured amount of each antibody. Through reaction with 10 mM glycine-HCl at pH 1.5, the sensor chips were regenerated by washing off antibody captured on the sensor chips and used repeatedly.
(§2) Binding strength was evaluated according to the following method based on the results of analyzing the interaction with each FcγR. […] That value was then further multiplied by 100, and the resulting value was used as an indicator of relative binding activity to each FcγR.

Question: B1 was tested. Which relative binding activity did it give?
Answer: 0 % of GpH7-B3/GpL16-k0

Question: For B2, which relative binding activity is on record?
Answer: 49 % of GpH7-B3/GpL16-k0

Question: B3 was tested. Which relative binding activity did it give?
Answer: 35 % of GpH7-B3/GpL16-k0

Question: B4 was tested. Which relative binding activity did it give?
Answer: 48 % of GpH7-B3/GpL16-k0

Question: How did the relative binding activity turn out when B5 was run?
Answer: 39 % of GpH7-B3/GpL16-k0

Question: Which relative binding activity does the source give for B6 here?
Answer: 38 % of GpH7-B3/GpL16-k0

Question: With B7 as the binder, how does the relative binding activity read?
Answer: 53 % of GpH7-B3/GpL16-k0

Question: For B8, which relative binding activity is on record?
Answer: 87 % of GpH7-B3/GpL16-k0

Question: Which relative binding activity does the source give for B9 here?
Answer: 82 % of GpH7-B3/GpL16-k0

Question: For B10, which relative binding activity is on record?
Answer: 78 % of GpH7-B3/GpL16-k0

Question: With B11 as the binder, how does the relative binding activity read?
Answer: 33 % of GpH7-B3/GpL16-k0

Question: For B12, which relative binding activity is on record?
Answer: 28 % of GpH7-B3/GpL16-k0

Question: Which relative binding activity does the source give for B13 here?
Answer: -2 % of GpH7-B3/GpL16-k0

Question: For B14, which relative binding activity is on record?
Answer: -2 % of GpH7-B3/GpL16-k0

target: T4, human FcγRIa (human, UniProt P12314 16-292, limits assumed); test: SPR, captured antibody;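 note: antibody captured on a sensor chip, Fcγ receptor flowed over at 25 °C, receptor binding normalized to the captured antibody amount and expressed relative to the reference antibody ×100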
T4 construct: also called FcgRIa; hFcgRIa
T4 sequence (P12314 16-292 limits assumed): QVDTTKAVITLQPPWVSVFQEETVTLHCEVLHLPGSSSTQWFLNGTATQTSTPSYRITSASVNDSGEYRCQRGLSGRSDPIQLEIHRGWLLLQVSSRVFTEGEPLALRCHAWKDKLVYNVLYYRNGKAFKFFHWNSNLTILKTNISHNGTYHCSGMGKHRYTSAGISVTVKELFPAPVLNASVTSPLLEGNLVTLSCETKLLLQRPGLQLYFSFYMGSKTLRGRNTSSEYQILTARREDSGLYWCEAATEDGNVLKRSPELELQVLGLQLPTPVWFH
Procedure: as §1, §2

Question: Which relative binding activity does the source give for B1 here?
Answer: 56 % of GpH7-B3/GpL16-k0

Question: With B2 as the binder, how does the relative binding activity read?
Answer: 98 % of GpH7-B3/GpL16-k0

Question: How did the relative binding activity turn out when B3 was run?
Answer: 84 % of GpH7-B3/GpL16-k0

Question: For B4, which relative binding activity is on record?
Answer: 94 % of GpH7-B3/GpL16-k0

Question: Which relative binding activity does the source give for B5 here?
Answer: 92 % of GpH7-B3/GpL16-k0

Question: B6 was tested. Which relative binding activity did it give?
Answer: 99 % of GpH7-B3/GpL16-k0

Question: B7 was tested. Which relative binding activity did it give?
Answer: 98 % of GpH7-B3/GpL16-k0

Question: For B8, which relative binding activity is on record?
Answer: 100 % of GpH7-B3/GpL16-k0

Question: How did the relative binding activity turn out when B9 was run?
Answer: 99 % of GpH7-B3/GpL16-k0

Question: Which relative binding activity does the source give for B10 here?
Answer: 98 % of GpH7-B3/GpL16-k0

Question: B11 was tested. Which relative binding activity did it give?
Answer: 100 % of GpH7-B3/GpL16-k0

Question: Which relative binding activity does the source give for B12 here?
Answer: 98 % of GpH7-B3/GpL16-k0

Question: B13 was tested. Which relative binding activity did it give?
Answer: 23 % of GpH7-B3/GpL16-k0

Question: How did the relative binding activity turn out when B14 was run?
Answer: 33 % of GpH7-B3/GpL16-k0

target: T2, human FcγRIIa(H); test: SPR, captured antibody;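 note: antibody captured on a sensor chip, Fcγ receptor flowed over at 25 °C, receptor binding normalized to the captured antibody amount and expressed relative to the reference antibody ×100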
Procedure: as §1, §2

Question: B1 was tested. Which relative binding activity did it give?
Answer: 1 % of GpH7-B3/GpL16-k0

Question: With B2 as the binder, how does the relative binding activity read?
Answer: 27 % of GpH7-B3/GpL16-k0

Question: With B3 as the binder, how does the relative binding activity read?
Answer: 9 % of GpH7-B3/GpL16-k0

Question: With B4 as the binder, how does the relative binding activity read?
Answer: 4 % of GpH7-B3/GpL16-k0

Question: For B5, which relative binding activity is on record?
Answer: 9 % of GpH7-B3/GpL16-k0

Question: With B6 as the binder, how does the relative binding activity read?
Answer: 55 % of GpH7-B3/GpL16-k0

Question: How did the relative binding activity turn out when B7 was run?
Answer: 58 % of GpH7-B3/GpL16-k0

Question: B8 was tested. Which relative binding activity did it give?
Answer: 99 % of GpH7-B3/GpL16-k0

Question: How did the relative binding activity turn out when B9 was run?
Answer: 67 % of GpH7-B3/GpL16-k0

Question: Which relative binding activity does the source give for B10 here?
Answer: 42 % of GpH7-B3/GpL16-k0

Question: B11 was tested. Which relative binding activity did it give?
Answer: 75 % of GpH7-B3/GpL16-k0

Question: Which relative binding activity does the source give for B12 here?
Answer: 48 % of GpH7-B3/GpL16-k0

Question: With B13 as the binder, how does the relative binding activity read?
Answer: -1 % of GpH7-B3/GpL16-k0

Question: How did the relative binding activity turn out when B14 was run?
Answer: 0 % of GpH7-B3/GpL16-k0

Target: T3, human FcγRIIa(R)
Test: SPR, captured antibody;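 note: antibody captured on a sensor chip, Fcγ receptor flowed over at 25 °C, receptor binding normalized to the captured antibody amount and expressed relative to the reference antibody ×100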
Procedure: as §1, §2

Question: For B1, which relative binding activity is on record?
Answer: 0 % of GpH7-B3/GpL16-k0

Question: How did the relative binding activity turn out when B2 was run?
Answer: 59 % of GpH7-B3/GpL16-k0

Question: With B3 as the binder, how does the relative binding activity read?
Answer: 37 % of GpH7-B3/GpL16-k0

Question: For B4, which relative binding activity is on record?
Answer: 55 % of GpH7-B3/GpL16-k0

Question: With B5 as the binder, how does the relative binding activity read?
Answer: 42 % of GpH7-B3/GpL16-k0

Question: For B6, which relative binding activity is on record?
Answer: 49 % of GpH7-B3/GpL16-k0

Question: For B7, which relative binding activity is on record?
Answer: 58 % of GpH7-B3/GpL16-k0

Question: With B8 as the binder, how does the relative binding activity read?
Answer: 89 % of GpH7-B3/GpL16-k0

Question: For B9, which relative binding activity is on record?
Answer: 83 % of GpH7-B3/GpL16-k0

Question: For B10, which relative binding activity is on record?
Answer: 73 % of GpH7-B3/GpL16-k0

Question: With B11 as the binder, how does the relative binding activity read?
Answer: 46 % of GpH7-B3/GpL16-k0

Question: For B12, which relative binding activity is on record?
Answer: 38 % of GpH7-B3/GpL16-k0

Question: With B13 as the binder, how does the relative binding activity read?
Answer: -1 % of GpH7-B3/GpL16-k0

Question: How did the relative binding activity turn out when B14 was run?
Answer: -1 % of GpH7-B3/GpL16-k0
